Consider three molecules from patent US20040214256.

For data set [1], the system named is T1, peptide 3s, Ac-Ser-Gly-PyA-Lys-Ala-Phe-Ala-pNF-Gly-Lys NH2.
T1 sequence: SGXKAFAXGK

For data set [2], the system named is T2, Compound 2s, Ac-Arg-Pro-Lys-Pro-Gln-Gln-PyA-pNF-Gly-Leu-Met-NH2.
T2 sequence: RPKPQQXXGLM

Data set [3] deals with T3, Compound 1s, Ac-Ile-Ile-PyA-pNF-Asn-Thr-Pro-Glu-His-Val-Val-Pro-Tyr-Gly-Leu-Gly-Ser-COOH.
T3 sequence: IIXXNTPEHVVPYGLGS

The target in data set [4] is T4, Compound 1s, Ac-Ile-Ile-PyA-pNF-Asn-Thr-Pro-Glu-His-Val-Val-Pro-Tyr-Gly-Leu-Gly-Ser-COOH.
T4 chain: IIXXNTPEHVVPYGLGS

The target of data set [5] is T5, peptide 3s, Ac-Ser-Gly-PyA-Lys-Ala-Phe-Ala-pNF-Gly-Lys NH2.
T5 chain: SGXKAFAXGK

For the molecule angiotensin-converting enzyme (ACE), the “cleavage by HPLC after 2 h at 37° C.” value in data set [1], in data set [2] and in data set [3] was “no cleavage is observed by HPLC after incubation for 2 h at 37 °C” each time.

Take neprilysin (NEP): the “cleavage by HPLC after 2 h at 37° C.” value in data set [1], in data set [2] and in data set [3] was “no cleavage is observed by HPLC after incubation for 2 h at 37 °C” in each case.

B1: endothelin-converting enzyme (ECE) (protein)
chain: MMSTYKRATLDEEDLVDSLSEGDAYPNGLQVNFHSPRSGQRCWAARTQVEKRLVVLVVLLAAGLVACLAALGIQYQTRSPSVCLSEACVSVTSSILSSMDPTVDPCHDFFSYACGGWIKANPVPDGHSRWGTFSNLWEHNQAIIKHLLENSTASVSEAERKAQVYYRACMNETRIEELRAKPLMELIERLGGWNITGPWAKDNFQDTLQVVTAHYRTSPFFSVYVSADSKNSNSNVIQVDQSGLGLPSRDYYLNKTENEKVLTGYLNYMVQLGKLLGGGDEEAIRPQMQQILDFETALANITIPQEKRRDEELIYHKVTAAELQTLAPAINWLPFLNTIFYPVEINESEPIVVYDKEYLEQISTLINTTDRCLLNNYMIWNLVRKTSSFLDQRFQDADEKFMEVMYGTKKTCLPRWKFCVSDTENNLGFALGPMFVKATFAEDSKSIATEIILEIKKAFEESLSTLKWMDEETRKSAKEKADAIYNMIGYPNFIMDPKELDKVFNDYTAVPDLYFENAMRFFNFSWRVTADQLRKAPNRDQWSMTPPMVNAYYSPTKNEIVFPAGILQAPFYTRSSPKALNFGGIGVVVGHELTHAFDDQGREYDKDGNLRPWWKNSSVEAFKRQTECMVEQYSNYSVNGEPVNGRHTLGENIADNGGLKAAYRAYQNWVKKNGAEHSLPTLGLTNNQLFFLGFAQVWCSVRTPESSHEGLITDPHSPSRFRVIGSLSNSKEFSEHFRCPPGSPMNPPHKCEVW
As for B1, the “Km (fluorimetric cleavage assay, ENZFITTER)” value in data set [4] is listed as 1s, Km=22.1±0.9 µM. Also, the “cleavage products by HPLC” value in data set [4] is recorded as “In all cases, a single cleavage site at the L.PyA-Lp.NF dipeptide was observed, generating only two metabolites”; in data set [5], “produce only two metabolites, as shown by analysis of the reaction by HPLC, corresponding to the single cleavage at the PyA-pNF peptide bond”.
